Reference: the DeepSol protein solubility set

Assay: soluble on expression in E. coli; label from the status in PepcDB or PDB records

Sequence	soluble on expression in E. coli
MNKTKNYSDETIDAFHRGKFYLVQPRLCGHRSGMDAMLLASLVPNNFKGKVVDLGAGAGAVGLAVAARCLDVHVTLVERSAFMVSYAQKTLMLKQNENLSKRVCLLKADVTLKGRSRLEAGLVDNAFDFAIMNPPFNNPVDRKTPDEKKFEAHVMPESMFDDWLRSAAAIVKPGGYLGLIARPQSLTDILCALEGRFGNICVIPIHARTEKAAIRVLFYAKRGSRAALSLLRPLVIHEDGCHIFSPKIDAINNGHISLWELLK	not soluble
MGSDKIHHHHHHMMDKEIENGSVNVDLLELEKFNQLAHRWWDPNSEFKPLHEINPLRLGYIDRHARLAGKDVLDVGCGGGILSESMAESGAQVTGIDLGDKALKVAKLHLLESGNKVNYRKSSVEALAAEQPHHYDVVTCMEMLEHVPDPVSTVRACAELAKPGGWVFFSTINRNPKSYLFAVIGAEYVLNLLPRGTHDYAKFIKPSELGRMAREAGLDVQEVIGMSYNPITKVYSLGQDTDVNYIMAFRA	not soluble
MGSDKIHHHHHHMTTQFACSGIELELFRYPSQQASNLQAWDAADEHLVKYLIDTEITATTTAILNDNFGALTCALTMQYPHSELLVETDAKTSLLGYQQNLLHNKLASTNIHWLNSRETLPQNIQLVLMKLPKNLHYFGQQLARLSTVLPAGTQILIGAKAKSINPALLASIEKNLGPASASLAWKKTRVISCISDGKKRSLAKAVSWNVDELKLTISNLANVFAANKLDIGARIMLDNMPKGEFKHIIDLGCGNGILGLHAKQCYPNAQIHFVDDSDMAIASAKHNWQANELDTPSQDLQSQDPQTEQMPQAFFHWDDCLSNLPADVEPDLVICNPPFHQGEAITDHIAWQMFVDAHKRLKKGGLLHIVGNRHLAYHVKINRIFKNCTTVASNGKFVILQAIK	not soluble
MGSDKIHHHHHHMSVLQELTKKKYSSLKTMFDDKYCPTFVYSILDQTIPGAVYADDQTFPKSFFIGTESGIYFIAGDQGNRDFHDFIAGYYEEQVKSSKRFTLFSSSDTWDSVLKPILKDDLNQMRRAAFSYQPKSFKKTLQLPKGLVLKRIDEDIISHSTAFNSAYYEEYWNSVSQFASKGFGFAVLHGNHVVSECTSIFLGHNRAEMDIYTLEEYRGLGLAYCVANRFIAFCMENGIVPSWDCDICNNSSIALAAKLGFKTVTEYTIYYSG	not soluble
RSPYDMEVIGQTIDDAAGEAFDKCAKVMGLGYPGGPIVNKLASEGNPDAFRFARPHVSGYDYSFSGLKTSFLYTLRDKLAEDPDFIEKNKADLCASLQHTVIDILMKKLRQAAKDHSIKQVALAGGVSANTGLRDAFHDHARRYGWTVFIPKFAYTTDNAAMVAISGYYKYLQGDFCPIDAVPFSRITV	not soluble
MSSDPDKMMSKADKMTKLTLTRWSADWRGATELYEQAANGFRASNKYEKAKVALEKASKGQEMQASPWDAAKHMESAAALAQKLSIWNEVADFYRKASELYVECGRAQPASDALGKAARALEDVKPDDAIQLYTDACEILEEDGRDQMAFDLYRACANVYIKLEKFTDAATFFLRLGVAADKCDATNSQCKAYLSAIILYLYAHDLQQAEKCYNDCSQIDAFLKSDQSRSASRLLTAYNEGDIEEIKKVASASTVSNLDHMIIKLARKLPTGDVTAIQMNTNDDLDEDDLT	soluble
GVADASDPIRPLVEALNAEAPLKLWSVLVTCLGDVSRDGVIEVSGVALSSFVERMGLQPQAMRVALHRLKRDGWVESRRLGRVGFHRLSDSALTQTRAVAGRIYGPGAGPAPWHLAGMPPDAPDGLSLLPDTLSATPISRRFALICGPLEDVPEDWLLTAPSGRGLPVWVQDVVVEAGCEAEFKALERTLAQIDKVPDTRLERFTLRVLVLHAWRRLILRSSPAAEAALGGARAEISCRARVHQLLDQLGSVEPDWDLPATEDAAS	soluble
MSKIIGSDRVKRGMAEMQKGGVIMDVVNAEQARIAEEAGAVAVMALERVPSDIRAAGGVARMANPKIVEEVMNAVSIPVMAKARIGHITEARVLEAMGVDYIDESEVLTPADEEYHLRKDQFTVPFVCGCRNLGEAARRIGEGAAMLRTKGEPGTGNIVEAVRHMRQVNSEVSRLTVMNDDEIMTFAKDIGAPYEILKQIKDNGRLPVVNFAAGGVATPQDAALMMELGADGVFVGSGIFKSEDPEKFAKAIVQATTHYQDYELIGRLASELGTAMKGLDINQLSLEERMQERGWMAGDPLEHHHHHH	not soluble
MGSDKIHHHHHHMLLDLERFYQACNPSRPLIIGNASDRRYYIDFAAVRGGKIIEALQRTIARISPDEPTCQLFTGHLGCGKSTELLRLKAELEAQQFHVVYFESTHVLEMADVDVTDILLAIAGQVSESLEAMKIRLKSTYFTKLFGEIVDFLQTPIDLGVEAELSVGIAKITAKTKESPQLRRRLRDYLEPRTANILQSINQELLERATKELKTKGKKGLVVIVDNLDRVAIRPLPSGRSLPEYLFIQRGEQLRKLNCHVVYTIPLALTFSNDSAELQHRLGGGVAPKMLPMIPVRLRSGEIFPQGLAMLRQMVLARAFPDILPSDRLGLITEVFDSLETLDRLCLISGGHVRDLLGLLFDCLREQDPPFERECVDLVIQRQRDYRANAIDPQEWELIFQVVQQQRVRGDIEYHTLLRSLFVFEYRDHQGAWFAVNPVLAETEKFKSWLNDTHKQI	not soluble
GEQPSIQLTFADQNNSEMSVVHLNQLLKTNHISADKIIEKDGKTTIVFDGEDAQSKARALLNKELNKDDSITFSYVSVAPEWLNEMGFSPIKLGLDLRGGVQFLLNVDVNKAFEEQRDALIDEINASRDQRVRGVQVRAESGNRITVNSDSEQALSEVNKFLRQNYPGWISKSSSRGFVLEPSEQNIQEFQSSTLQQNLKIMRGRIEELGITEALVQRQGKESIRIELPGVQDPAQAKNVIGATASLAFYEVKDASQAHSSQDLVLQDNDGRTVILAKRPVLTGEHIVNARAGVDKMGMSEVNISLDHAGGKKMSDFSATHIGKPMATVYREYKTNDRGVTERSERVISVATIQSQLGSQFRITGAGSMDDAQQLALLLRAGSLTAPVTIVEERTIGASLGAENIEN	not soluble
MGSDKIHHHHHHMYAETDFIALSALQHYVFCPRQCALIHLEQVWSENLYTAEGREMHERADSAVTSYREGVKVTRSVPLRSAVLGVSGVADVVEWHRREGGFEPFPVEYKRGKPKKHDADKVQLCAQAMCLEEMRSCAIPSGALFYGQTMRRLDVVFDEVLRSKTVAAAAGVHGLFSLGVTPHPEFGPKCKLCSLVDECLPEVLERHGSAKRYVQKLYRELSGEEI	not soluble
APAEPAAPKSGEAETPPKHPGVLKVEAILEKVQGLEQAVDSFEGKKTDKKYLMIEEYLTKELLALDSVDPEGRADVRQARRDGVRKVQTILEKLEQKA	soluble
MSLQRVSNRLIEQSDIENMPNTWKKQAYRQIAKKLGPKSNFPCIFSKNAYKKGLLQFVFMESISHDQMEELKVCLTEFIEANKEWDHRISTAKPLLIVFSTQAIKSERLEDYHSFGWNVLRSIHALDPSPWPHGVDKDPSSPNWSMCFNGMQLFINMSCPAHKVRRSRNLGDHFIMVVNPRERFDVVAGDNAKGHRVRDEIRGRIEIYDNCKPCKQLGYFGSDTMEWQQYGIIEENKTRTSKCPYKIDEGHHHHHH	soluble
RFNLFNYREATLIADYGHNPDAMEALVCAIDHIPAKKRTVVISAAGDRRNEDIRLQTRILGDVFDEVVLFQDKCQRGRADGEVLGLLREGLENAKRVRKVSEIRGEFKAIDTALTNLEAGELCLILIDQ	not soluble
MSFFDKVKGALTSGREELTRQVGRYKNKKFMQGTVAVCARIAVASDGVSSEEKQKMIGFLRSSEELKVFDTAEVIEFFNKLVTSFDFDLEIGKGETMKYILALKDQPEAAQLALRVGIAVAKSDGNFDDDEKSAVREIARSLGFDPAEFGLLE	soluble
MGSDKIHHHHHHMLEFLSQQKPKILIIGDFMVDNYTWCDCSRISPEAPVLIAKTLKEDKRLGGAANVYANLKSLGADVFALGVVGDDESGKFLQENLKGEFLIQKGRKTPFKNRIMAHNQQVLRLDEEDISEILLENELIALFDEKIKDFKAVVLSDYAKGVLTPKVCKAVIEKAKVLNIPVLVDPKGSDFNKYSGATLLTPNKKEALEALKFENLEGENLEKGIKKLKEDFSLRYSIITLSEAGIALFDEGLKIAPAKALEVYDVTGAGDSVIAVLAFCLANEIEIFKACELANEAAAVVVSKIGSVSVSFDEIKSFKRVDFEKKIKSKEELLVLLKQNNKKIVFTNGCFDIVHFGHIKYLDKAKRLGDVLIVGLNSDASVKRLKGESRPVNSEFQRACMLAAFYFVDFVVIFDEDTPLELISFLKPDILVKGADYKDKLVVGADIVSRVELIDFEEGFSTSKIIEKIKDKK	not soluble
MYFIGCGYNAFPVGSEYADFPHMDDKHKDREIRKFRYIIHAEQNALTFRCQDIKPEEHSMIFVTKCPCDECVPLIKGAGIKQIYAGDVDVGKKKADISYMKFGELEGVRKFTWQLNPSEAYSLDPNEPERREKHLSIKRSH	not soluble
MMKRNLIGAFIAASTLLSSSVAFSQDKPAYETGMIPADHIMVPDGDIQASIFLISDANGWTEADETRAKALVEKGAAVVGIDFKEYLKALEADDDECIYMISDIESLSQQIQRTAGTGSYRLPIVTGIGKGGTLALAMIAQSPVSTVREAVAVDPKAGLPLEKILCTPATKDKVDGETVYGLTDGALPAPVSVIFTPDADQKGRDHVNALVKLHSDIEVTDVTDKADEVLTQTLSDKVDAAGDSGNPLGLPITVLEAKPVMDTMAVIYSGDGGWRDLDEEVGSALQKQGVPVIGVDALRYFWKEKDPKEVAGDLARIIDTYRKEWKVKNVVLIGYSFGADIIPATYNLLPDRVKSSVAQLSLLGLSNEVDFEISVQGWLGVAGEGKGGKTVDDIAKIDPKLVQCVYGTEEEDEDPCPGLKAKGVETIGIEGGHHFDEDYEALAKRIVTSLKTRLAKLEHHHHHH	soluble
GQGKLISVKTDVLDLTINTRGGDVEQALLPAYPKELNSTQPFQLLETSPQFIYQAQSGLTGRDGPDNPANGPRPLYNVEKDAYVLAEGQNELQVPMTYTDAAGNTFTKTFVLKRGDYAVNVNYNVQNAGEKPLEISSFGQLKQSITLPPHLDTGSSNFALHTFRGAAYSTPDEKYEKYKFDTIADNENLNISSKGGWVAMLQQYFATAWIPHNDGTNNFYTANLGNGIAAIGYKSQPVLVQPGQTGAMNSTLWVGPEIQDKMAAVAPHLDLTVDHHHHHH	soluble
MSLTEMLSTEDFDFDLPEELIAQTPLKDRASSRLLVVNKETGDMEDKHFHDILDELQPGDALVMNNTRVLPARLYGEKPETGGHLEVLLLTNTEGDTWETLIKPAKRAKVGTEIQFGDGRLKAVVKEELEHGGRIIEFKYDGIFLEILESLGEMPLPPYIKERLDDPDRYQTVYAEENGSAAAPTAGLHFTKELLEEIKAKGVHLVYLTLHVGLGTFRPVSVDNIEEHHMHSEFYRLTEEAAKQLNEVRQAGGRIVAVGTTSIRTLETIGTKFNGEIQADSGWTDIFITPGYQFKVVEAFSTNFHLPKSTLVMLVSAFAGKDLTLAAYQHAIEEKYRFFSFGDAMFIKEGGSHHHHHH	soluble
MAVREYQKKRRRERIFRAAMELFRNRGFQETTATEIAKAAHVSRGTFFNYYPYKEAVLLDYGSQLLAGLREEVRRLLAQGREPVEVLRHLFRVLAEGTAREKDLLLPMFYELLNPDPVRARAAFEALPLGDLIAEILKPLREQGVLRQDFSLERMGRTLADLYFLSALRWAAYTPGRDLAEELEKNLRLLLEGMLVREAPAPGGL	not soluble
